B1: Peroxisome proliferator-activated receptor delta, residues 71 to 145; numbered along this chain, Q03181 (parent)
chain: NMECRVCGDKASGFHYGVHACEGCKGFFRRTIRMKLEYEKCERSCKIQKKNRNKCQYCRFQKCLALGMSHNAIRF

± gives the uncertainty stated by the source.

In the data set the parent is B1. Kind of data set: abundance fitness (aPCA) (normalised: wild type 0, dead -1); higher = more abundant; growth selection in yeast, the domain comes from the species named. The settings on record: Homo sapiens.
In the case of NMECRVCGDKAHGFHYGVHACEGCKGFFRRTIRMKLEYEKCERSCKIQKKNRNKCQYCRFQKCLALGMSHNAIRF [S12H], the abundance fitness was -0.238 ± 0.092.

In the case of NMECRVCGDKAKGFHYGVHACEGCKGFFRRTIRMKLEYEKCERSCKIQKKNRNKCQYCRFQKCLALGMSHNAIRF [S12K], the abundance fitness was -0.248 ± 0.06.

In the case of NMECRVCGDKAAGFHYGVHACEGCKGFFRRTIRMKLEYEKCERSCKIQKKNRNKCQYCRFQKCLALGMSHNAIRF [S12A], the abundance fitness is -0.119 ± 0.042.

Take NMECRVCGDKAPGFHYGVHACEGCKGFFRRTIRMKLEYEKCERSCKIQKKNRNKCQYCRFQKCLALGMSHNAIRF [S12P]: the abundance fitness is -0.39 ± 0.07.

NMECRVCGDKANGFHYGVHACEGCKGFFRRTIRMKLEYEKCERSCKIQKKNRNKCQYCRFQKCLALGMSHNAIRF [S12N]: the abundance fitness was -0.098 ± 0.067.

Turning to NMECRVCGDKAEGFHYGVHACEGCKGFFRRTIRMKLEYEKCERSCKIQKKNRNKCQYCRFQKCLALGMSHNAIRF [S12E], the abundance fitness is -0.123 ± 0.052.

On to NMECRVCGDKAFGFHYGVHACEGCKGFFRRTIRMKLEYEKCERSCKIQKKNRNKCQYCRFQKCLALGMSHNAIRF [S12F], for which the abundance fitness was -0.115 ± 0.086.

Regarding NMECRVCGDKAIGFHYGVHACEGCKGFFRRTIRMKLEYEKCERSCKIQKKNRNKCQYCRFQKCLALGMSHNAIRF [S12I], the abundance fitness was -0.121 ± 0.11.

Take NMECRVCGDKAGGFHYGVHACEGCKGFFRRTIRMKLEYEKCERSCKIQKKNRNKCQYCRFQKCLALGMSHNAIRF [S12G]: the abundance fitness is -0.274 ± 0.046.

As for NMECRVCGDKALGFHYGVHACEGCKGFFRRTIRMKLEYEKCERSCKIQKKNRNKCQYCRFQKCLALGMSHNAIRF [S12L], the abundance fitness is -0.395 ± 0.059.

For NMECRVCGDKACGFHYGVHACEGCKGFFRRTIRMKLEYEKCERSCKIQKKNRNKCQYCRFQKCLALGMSHNAIRF [S12C], the abundance fitness is -0.103 ± 0.069.

NMECRVCPDKASGFHYGVHACEGCKGFFRRTIRMKLEYEKCERSCKIQKKNRNKCQYCRFQKCLALGMSHNAIRF [G8P]: the abundance fitness is -0.891 ± 0.11.

NMECRVCLDKASGFHYGVHACEGCKGFFRRTIRMKLEYEKCERSCKIQKKNRNKCQYCRFQKCLALGMSHNAIRF [G8L]: the abundance fitness was -0.598 ± 0.07.

On to NMECRVCHDKASGFHYGVHACEGCKGFFRRTIRMKLEYEKCERSCKIQKKNRNKCQYCRFQKCLALGMSHNAIRF [G8H], for which the abundance fitness was -0.064 ± 0.087.

As to NMECRVCSDKASGFHYGVHACEGCKGFFRRTIRMKLEYEKCERSCKIQKKNRNKCQYCRFQKCLALGMSHNAIRF [G8S], the abundance fitness was -0.362 ± 0.045.

Consider NMECRVCIDKASGFHYGVHACEGCKGFFRRTIRMKLEYEKCERSCKIQKKNRNKCQYCRFQKCLALGMSHNAIRF [G8I], for which the abundance fitness is -0.687 ± 0.34.

NMECRVCTDKASGFHYGVHACEGCKGFFRRTIRMKLEYEKCERSCKIQKKNRNKCQYCRFQKCLALGMSHNAIRF [G8T]: the abundance fitness is -0.447 ± 0.068.

On to NMECRVCMDKASGFHYGVHACEGCKGFFRRTIRMKLEYEKCERSCKIQKKNRNKCQYCRFQKCLALGMSHNAIRF [G8M], for which the abundance fitness was -0.782 ± 0.12.

Take NMECRVCQDKASGFHYGVHACEGCKGFFRRTIRMKLEYEKCERSCKIQKKNRNKCQYCRFQKCLALGMSHNAIRF [G8Q]: the abundance fitness is -0.253 ± 0.064.

For NMECRVCKDKASGFHYGVHACEGCKGFFRRTIRMKLEYEKCERSCKIQKKNRNKCQYCRFQKCLALGMSHNAIRF [G8K], the abundance fitness is -0.563 ± 0.1.

For NMECRVCYDKASGFHYGVHACEGCKGFFRRTIRMKLEYEKCERSCKIQKKNRNKCQYCRFQKCLALGMSHNAIRF [G8Y], the abundance fitness is -0.438 ± 0.15.

Regarding NMECRVCVDKASGFHYGVHACEGCKGFFRRTIRMKLEYEKCERSCKIQKKNRNKCQYCRFQKCLALGMSHNAIRF [G8V], the abundance fitness was -0.899 ± 0.093.

NMECRVCWDKASGFHYGVHACEGCKGFFRRTIRMKLEYEKCERSCKIQKKNRNKCQYCRFQKCLALGMSHNAIRF [G8W]: the abundance fitness is -0.812 ± 0.13.

Consider NMECRVCGIKASGFHYGVHACEGCKGFFRRTIRMKLEYEKCERSCKIQKKNRNKCQYCRFQKCLALGMSHNAIRF [D9I], for which the abundance fitness is -0.345 ± 0.12.

Turning to NMECRVCGEKASGFHYGVHACEGCKGFFRRTIRMKLEYEKCERSCKIQKKNRNKCQYCRFQKCLALGMSHNAIRF [D9E], the abundance fitness was -0.154 ± 0.044.

For NMECRVCGWKASGFHYGVHACEGCKGFFRRTIRMKLEYEKCERSCKIQKKNRNKCQYCRFQKCLALGMSHNAIRF [D9W], the abundance fitness was -0.618 ± 0.097.

For NMECRVCGSKASGFHYGVHACEGCKGFFRRTIRMKLEYEKCERSCKIQKKNRNKCQYCRFQKCLALGMSHNAIRF [D9S], the abundance fitness was -0.178 ± 0.045.

Turning to NMECRVCGNKASGFHYGVHACEGCKGFFRRTIRMKLEYEKCERSCKIQKKNRNKCQYCRFQKCLALGMSHNAIRF [D9N], the abundance fitness was -0.152 ± 0.064.

Take NMECRVCGMKASGFHYGVHACEGCKGFFRRTIRMKLEYEKCERSCKIQKKNRNKCQYCRFQKCLALGMSHNAIRF [D9M]: the abundance fitness is -0.436 ± 0.086.

For the variant NMECRVCGTKASGFHYGVHACEGCKGFFRRTIRMKLEYEKCERSCKIQKKNRNKCQYCRFQKCLALGMSHNAIRF [D9T], the abundance fitness is -0.327 ± 0.067.

Take NMECRVCGGKASGFHYGVHACEGCKGFFRRTIRMKLEYEKCERSCKIQKKNRNKCQYCRFQKCLALGMSHNAIRF [D9G]: the abundance fitness is -0.198 ± 0.037.

Turning to NMECRVCGCKASGFHYGVHACEGCKGFFRRTIRMKLEYEKCERSCKIQKKNRNKCQYCRFQKCLALGMSHNAIRF [D9C], the abundance fitness was -0.305 ± 0.075.

For the variant NMECRVCGFKASGFHYGVHACEGCKGFFRRTIRMKLEYEKCERSCKIQKKNRNKCQYCRFQKCLALGMSHNAIRF [D9F], the abundance fitness was -0.283 ± 0.082.

As for NMECRVCGAKASGFHYGVHACEGCKGFFRRTIRMKLEYEKCERSCKIQKKNRNKCQYCRFQKCLALGMSHNAIRF [D9A], the abundance fitness was -0.065 ± 0.043.

As for NMECRVCGRKASGFHYGVHACEGCKGFFRRTIRMKLEYEKCERSCKIQKKNRNKCQYCRFQKCLALGMSHNAIRF [D9R], the abundance fitness was -0.348 ± 0.045.

In the case of NMECRVCGVKASGFHYGVHACEGCKGFFRRTIRMKLEYEKCERSCKIQKKNRNKCQYCRFQKCLALGMSHNAIRF [D9V], the abundance fitness is -0.331 ± 0.048.

The record behind these values is the Human Domainome abundance scans (Beltran et al. 2025).
